From patent US20120269832A1 come the findings set out here.

In test [1] the target is CD40, the cognate receptor molecule for CD40L, on human monocyte-derived dendritic cells (human) (UniProt P25942). Put plainly: cell-based or functional assay.
Test [2] has as its target human CD40L protein translated from transfected CD40L mRNA (pCR2.1 CD40L WT, >100 nucleotide poly-A tail) (human) (UniProt P29965). Put plainly: cell-based or functional assay.

Sequence of UniProt P25942 (P25942 21-277): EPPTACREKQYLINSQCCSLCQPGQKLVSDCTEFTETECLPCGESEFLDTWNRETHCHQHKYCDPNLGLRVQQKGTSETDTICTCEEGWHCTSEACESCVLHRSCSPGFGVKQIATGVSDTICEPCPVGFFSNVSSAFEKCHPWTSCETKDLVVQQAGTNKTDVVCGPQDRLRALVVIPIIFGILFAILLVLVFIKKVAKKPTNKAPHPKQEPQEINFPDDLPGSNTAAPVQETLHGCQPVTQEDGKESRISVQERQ

Regarding “human CD40L protein translated from transfected CD40L mRNA (pCR2.1 CD40L WT, >100 nucleotide poly-A tail) (from UniProt P29965 1-261) (ligand)”, in test [1], the IL-12p70 (pg/ml), "Cocktail" matured and reactivated DCs co-cultured with HeLa/>100 polyA + IFN-γ was 26.3 pg/mL; the IL-12p70 (pg/ml), immature DCs co-cultured with HeLa/>100 polyA + IFN-γ is 372 pg/mL.

“blocking CD40L monoclonal antibody 24-31 (eBioscience)”: in test [2], the IL-12p70 (pg/ml), "Cocktail" matured and reactivated DCs co-cultured with HeLa/>100 polyA + IFN-γ + 24-31 was 2.5 pg/mL; the IL-12 p70 release from CD40L mRNA-transfected DCs cultured with IFN-γ and 10 or 50 µg/ml blocking anti-CD40L antibody came to 50%.
